Results on two molecules are retold here after US20110117113A1, “IMMUNOGLOBULIN SINGLE VARIABLE DOMAIN DIRECTED AGAINST HUMAN CXCR4 AND OTHER CELL ASSOCIATED PROTEINS AND METHODS TO GENERATE THEM” (priority 2009, published 2011).

One experiment addresses T1, CXCR4 mutant 3 (D187V) (Homo sapiens, UniProt P61073, D187V).
T1 construct: expressed in transfected cells; host or cells: Hek293T, transient, pcDNA3.1
Put plainly: Footprint assay, flow cytometry binding to CXCR4 D187V on Hek293T cells. As to conditions: Myc-tag detection, 10 nM and 100 nM Nanobody, average n = 3, relative to hCXCR4. The source says: (§1) Based on the data from example 1.8, we introduced 3 single point-mutations in ECL2 of CXCR4 that allowed to discriminate between 238D2 and 238D4-like epitopes: V196E (specifically disturbing D2 binding)-SEQ ID NO: 20, D187V (specifically disturbing D4 binding)-SEQ ID NO: 21, F189V (disturbing binding of both D2 and D4)-SEQ ID NO: 19. […] For the epitope mapping, transient transfections of the three CXCR4 mutants and wildtype human CXCR4 in the pcDNA3.1 vector were done in Hek293T cells, after which Nanobody binding of different families was assessed by flow cytometry using detection of the Myc-tag, followed by secondary anti-mouse PE. Two concentrations of Nanobody were tested, 10 nM and 100 nM, and experiment was repeated with essentially the same results. Binding of the Nanobodies to HEK293T hCXCR4 cells was used for normalization using the following formulas:
(§2) Percentage of binding to the mutant receptors was calculated for each Nanobody concentration, and a position was considered as critical when less than 25% residual binding (average of n=3) was observed (Table C-5). […] Nanobodies could be grouped according to their different binding patterns, not only in “238D2-like” or “epitope A binders” and “238D4-like” or “epitope B binders” but also into other new groups.

For the next experiment, the target named is T2, wildtype human CXCR4 (Homo sapiens, UniProt P61073).
T2 construct: expressed in transfected cells; host or cells: Hek293T, transient, pcDNA3.1
T2 sequence (P61073 whole entry): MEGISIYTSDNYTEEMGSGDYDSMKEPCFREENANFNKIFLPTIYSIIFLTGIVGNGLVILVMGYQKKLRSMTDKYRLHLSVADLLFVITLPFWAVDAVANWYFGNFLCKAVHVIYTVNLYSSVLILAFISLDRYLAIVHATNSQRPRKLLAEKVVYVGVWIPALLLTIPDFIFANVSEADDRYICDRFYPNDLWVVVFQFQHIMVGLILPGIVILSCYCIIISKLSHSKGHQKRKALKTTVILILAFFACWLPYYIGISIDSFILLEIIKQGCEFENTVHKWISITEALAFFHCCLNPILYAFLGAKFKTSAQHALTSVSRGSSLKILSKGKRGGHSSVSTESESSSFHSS
In words: Footprint assay, flow cytometry binding to wildtype human CXCR4 on Hek293T cells. The conditions noted are these: Myc-tag detection, 10 nM and 100 nM Nanobody, average n = 3, wild type used for normalization.
Excerpt: as §1, §2
In general terms: A flow cytometer gives signals particle by particle.

The next experiment concerns the target T3, CXCR4 (Homo sapiens, UniProt P61073).
T3 construct: expressed in transfected cells; host or cells: HEK293T, transient; membrane fraction
Put plainly: Competition binding, displacement of [^125I]-238D2 on membranes from HEK293T cells transiently expressing CXCR4. The conditions noted are these: mean ± S.E.M. The method, then: Iodine incorporation and specific activity were controlled via precipitation of the protein with trichloroacetic acid.
Competition binding assay—Periplasmic fractions were screened in a competition binding assay using membranes from HEK293T cells transiently expressing CXCR4. […] Membranes were then harvested over polyethylenimine (0.5%)-treated Whatman GF/C filter plates and washed three times with ice cold binding buffer containing 500 mM NaCl. Plates were counted by liquid scintillation.
Characterization of Nanobody binding to CXCR4—Following purification, receptor binding to characteristics for 238D2 and 238D4 were investigated on cell membranes from HEK293T cells transiently expressing CXCR4.
Data analysis and presentation—Data are presented as mean±S.E.M. from n independent experiments. Concentration response curves (E/[A] curves) were fitted to the Hill equation using an iterative, least-squares method (GraphPad Prism 4.0, GraphPad Software, San Diego, Calif.) to provide maximal inhibitory effects (Imax), half maximal effective (EC50) or inhibitory concentrations (IC50). Competition binding affinities and functional antagonist affinities (Ki) were calculated using the Cheng and Prusoff equation Ki=IC50/(1+[agonist]/EC50) (Cheng & Prusoff, 1973).

For experiment [1], the target named is T4, CXCR4 mutation library (Human CXCR4-short) (Homo sapiens, UniProt P61073, F189L/S319P/V155E).
T4 construct: expressed in transfected cells; host or cells: HEK-293T, transient, 384-well
T4 sequence (P61073 whole entry V155E/F189L/S319P): as the sequence (P61073 whole entry) above, with V155E, F189L, S319P counted along it
In words: Shotgun mutagenesis epitope mapping, immunofluorescence on CXCR4 mutation library in HEK-293T. Format: binding. The conditions noted are these: residue F189; mutations F189L, S319P, V155E; normalized to wild type; 3 experiments (+/−range). The source says: (§3) Method: See e.g. Willis, et al. 2008. Virus-like particles as quantitative probes of membrane protein interactions. Biochemistry 47:6988-6990. In short, the method comprises the following steps:
(§4) Create comprehensive mutation library • Start with a cDNA in eukaryotic expression plasmid • Create library where every amino acid is individually mutated
(§5) Express each clone within living cells in 384-well microplates
(§6) Detect structure and/or function of proteins
(§7) • Parental plasmid: Human CXCR4-short (SEQ ID NO: 6, 352 amino acids) • Epitope tags: N-terminal Flag (to detect surface expression), C-terminal V5 (to detect full-length translation) • Cell types used for immunofluorescence assays: HEK-293T
(§8) The immunofluorescence assay conditions (to detect binding) were optimized for the nanbodies to be tested. In short, 384-well immunofluorescence (IF) assay using HEK-293T cells transiently was transfected with different concentrations of CXCR4 DNA. The plate was first incubated with different concentrations of either Nanobody 238D2 or 238D4, then with 9E10, and finally with Cy3. The commercially-available anti-CXCR4 MAb 12G5 was used as an IF control.
(§9) Mapping Nanobody Binding to CXCR4 Mutation Library: The entire library was screened in triplicate with each Nanobody. The data was background-subtracted and normalized to wild type reactivity and averaged across the repeats. Nanobody binding was plotted as a function of average surface expression, and measured by immunoreactivity of an N-terminal Flag epitope tag. Thresholds of 60% Flag and 30% Nanobody were used to identify critical clones. Using standard IF conditions, we identified 1 critical residue (2 critical clones). Using increased stringency assay conditions (high salt), we identified 5 additional residues (Tables C-3 and C-4).

Experiment [2] addresses T5, CXCR4 mutation library (Human CXCR4-short) (Homo sapiens, UniProt P61073, D187A/Y157C).
T5 construct: expressed in transfected cells; host or cells: HEK-293T, transient, 384-well
The experiment is described as above. As to conditions: residue D187; mutations D187A, Y157C; normalized to wild type; 3 experiments (+/−range). The experiment is classed as binding.
Excerpt: as §3, §4, §5, §6, §7, §8, §9

In experiment [3] the target is T6, wildtype human CXCR4 (pcDNA3.1-CXCR4, expressed in HEK293T) (human, UniProt P61073 1-352).
T6 construct: whole, on cells; also called hCXCR4; HEK293T CXCR4
T6 sequence (P61073 whole entry): as the sequence (P61073 whole entry) above
In words: competition with [125I]-238D4, HEK293T-CXCR4 membranes.

In experiment [4] the target is all CXCR4 library clones containing a mutation at D187. Put plainly: immunofluorescence, average over all clones with a mutation at D187.
The target in experiment [5] is all CXCR4 library clones containing a mutation at S178. Put plainly: immunofluorescence, average over all clones with a mutation at S178.
Experiment [6] addresses all CXCR4 library clones containing a mutation at E179. Put plainly: immunofluorescence, average over all clones with a mutation at E179.
Experiment [7] deals with T6, wildtype human CXCR4 (pcDNA3.1-CXCR4, …). Put plainly: competition with [125I]-CXCL12, HEK293T-CXCR4 membranes.
The target in experiment [8] is all CXCR4 library clones containing a mutation at F189. In words: immunofluorescence, average over all clones with a mutation at F189.
Experiment [9] deals with T6, wildtype human CXCR4 (pcDNA3.1-CXCR4, …). Put plainly: competition with [125I]-238D2, HEK293T-CXCR4 membranes.

T3 sequence (P61073 whole entry): as above
T5 sequence (P61073 whole entry Y157C/D187A): as the sequence (P61073 whole entry) above, with Y157C, D187A counted along it
T1 sequence (P61073 whole entry D187V): as the sequence (P61073 whole entry) above, with D187V counted along it

B1: 238D2: monovalent anti CXCR4 Nanobody, SEQ ID NO: 2 (protein)
VHH: EVQLVESGGGLVQTGGSLRLSCAASGFTFSSYAMSWVRQAPGKGLEWVSGIKSSGDSTRYAGSVKGRFTISRDNAKNMLYLQMYSLKPEDTAVYYCAKSRVSRTGLYTYDNRGQGTQVTVSS
modifications: Nanobody
In the case of B1, the “HEK293T D187V binding” value with CXCR4 mutant 3 (D187V) was “+ (>75% binding to mutant rel. to hCXCR4)”. For the same molecule, the “HEK293T CXCR4 binding” value with wildtype human CXCR4 was “+ (>75% binding to mutant rel. to hCXCR4)”. In addition, the “[^125I]-238D2 Displacem. (%)” value with CXCR4 (maximal displacement) is recorded as 97 ± 6%. The “[^125I]-238D2 pKi” value with CXCR4 (receptor affinity) stood at 8.41 ± 0.11. In addition, the “% immunofluoresence, clone 465” value in [1] was 31.8 (16.2) %. In experiment [2], the “% immunofluoresence, clone 3728” value is listed as 77.1 (18.2) %.

B2: Nanobody 238D4 (VHH)
VHH: EVQLMESGGGLVQAGGSLRLSCAASGRTFNNYAMGWFRRAPGKEREFVAAITRSGVRSGVSAIYGDSVKDRFTISRDNAKNTLYLQMNSLKPEDTAVYTCAASAIGSGALRRFEYDYSGQGTQVTVSS
With B2, the pKi in experiment [3] worked out at 8.55 pKi; in experiment [7], 8.22 pKi; in [9], 8.8 pKi. The average nanobody reactivity is -12.2% in experiment [4], 23.2% in experiment [5], 13.8% in experiment [6] and 0.2% in [8].
